# The supplement of paper PMC12042874
# ± gives the uncertainty stated by the source.
# Assay: amyloid nucleation score (Sup35N fusion, yeast selection) (log enrichment); library NNK1; higher = more nucleation; inactive = no reads after selection
# In short: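 The nucleation score is the log enrichment of output over input reads, calculated with DiMSum and centred on the mode score of non-aggregating sequences. Sequences with under 100 input reads were excluded. Reads came from Illumina sequencing of plasmid inserts from psi-negative yeast expressing Sup35N fused to peptides of 20 random codons, induced 24 hours with 100 μM copper sulfate and grown 7 days at 30°C without adenine and uracil.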
row,Substance,amyloid nucleation score
1,TSSSRSIDR,0.16 ± 0.35
2,NKWYVF,0.071 ± 1.1
3,FEGRGFKDNATQENNSEFAS,0.4 ± 0.46
4,NERSSEELAPLDTQWSMLRG,-0.124 ± 0.69
5,MTSVADECSLYSWAYSWLMS,1.84 ± 0.57
6,LLLLIN,-0.663 ± 1.7
7,LLFGTHVPIRRGRFDASMIY,0.58 ± 0.5
8,RGFADLCAFEDMCIRFDESL,0.878 ± 0.64
9,NREGCIMWHRRVLARRCLTS,0.145 ± 0.89
10,SQVGALFDVPQSVNDSFKNM,0.399 ± 0.57
11,DMLRMVRYTVWVSRVRSHGW,3.07 ± 0.079
12,SAVQFG,-0.539 ± 0.54
13,LEFVYNH,1.44 ± 0.74
14,RPLVGTGIYSVVRSLFRLCV,-1.16 ± 0.59
15,LAVTFQGIGFSYSILHITTY,-0.164 ± 0.44
16,RFSWPWTDYNMKNYA,-0.119 ± 0.21
17,SCPVLHAVPNYCAKALLSLR,-0.794 ± 0.64
18,LLCDWDGQ,0.497 ± 0.43
19,WEIAE,0.939 ± 0.19
20,AFVEGRMNHPYSGTMLSRRG,0.418 ± 0.53
21,GNTVQLGRAGRFHVYDLRGV,-0.357 ± 0.6
22,TGWQCYSRANVVD,-0.98 ± 0.51
23,RLPLMNWFTAMA,0.037 ± 0.42
24,IVVKV,-0.035 ± 0.97
25,VTLSLMCWNFALRFVSLGRS,4.02 ± 0.071

row,Substance,amyloid nucleation score
1,FVFFSLGHLAFFARDRYSPW,2.38 ± 0.094
2,LCTLTVNYRSEHSYFYCINF,-0.319 ± 0.41
3,IVNVSCITNVDGGSLADSAV,2.48 ± 0.25
4,SGCVQDCSLKRIFLMPDKAL,-1.03 ± 0.55
5,TSLCCSYWFSSVIGFSGYCG,1.89 ± 0.28
6,VVVWVFHFYAC,1.16 ± 0.71
7,NWSEWGSRIHFKCWIEMLLR,0.174 ± 0.55
8,PAPPAQHIYVQRVYSFCQRG,-0.161 ± 0.9
9,STEVGYSFCHGGMSRTVCMC,1.45 ± 0.68
10,FKCRACMLYDVYIAERWVTG,-0.022 ± 0.37
11,FCNWAL,-0.18 ± 0.5
12,CNRPGF,-0.249 ± 0.44
13,ICELIWGGRRSNGINGSTSG,0.741 ± 0.23
14,KFSCGTFSLRHPT,0.725 ± 0.52
15,VGTFTGV,-0.189 ± 0.43
16,KWVWDLMMVDSGLRLSSHVL,0.026 ± 0.35
17,SLCHAFYSVNNLAFCHSFTP,6.539 ± 0.061
18,AFNSFIGFHCPSDVWCMKRN,5.25 ± 0.051
19,NRRVPLIHCYLMCGYTGTCW,0.249 ± 0.4
20,KQSCWALSYVYMTSHVLSGG,0.495 ± 1.4
21,YTQSWQ,-0.309 ± 0.51
22,IEGDFEFGVNVSRAARDMRV,-0.856 ± 0.94
23,SIGCIYRSSKSGDVSISY,-0.057 ± 0.37
24,YEVIHICTNLEPIVRNCMGG,7.024 ± 0.066
25,SLSMFLLTILTCYDGFIDIW,-0.372 ± 0.25

row,Substance,amyloid nucleation score
1,YSNWSCLYCSKSL,7.552 ± 0.053
2,LLMYSKWAFTDYGT,-0.147 ± 0.74
3,HEGGQWLRKLTGPLGLRFMR,0.216 ± 0.48
4,RFGYFFHLVGAGEGHGKGAC,0.686 ± 0.59
5,LGVKFVQDGTINKGHLKR,-0.543 ± 0.63
6,VVGVYYSCIYVGAYNLGSIP,4.77 ± 0.1
7,GQGALDYF,inactive
8,WGSYS,0.118 ± 1.1
9,NRRMCFRCIFGFHVCKLNGW,-0.027 ± 0.5
10,TMVFCRI,0.23 ± 0.79
11,QNPNVDERNSTS,0.69 ± 0.52
12,LRWLSRKILLTVRASN,-0.125 ± 0.33
13,MLEQAFESFPTWRTT,-0.06 ± 0.5
14,TCCDRSRCSESSEGRRFQRT,0.162 ± 0.3
15,LIEVWYVLIQGECDPWVTHG,1.07 ± 0.97
16,PRLARMLLHDGAEYDCELSC,-0.963 ± 1.2
17,YQNFPVKLITQKCLCWIDRC,0.216 ± 0.31
18,CSFGQIPCNLDQTGLLRARG,1.1 ± 0.55
19,RRLTILSTSPWCTPLELNSF,-0.282 ± 0.37
20,SKYDLISRANVLFVSANYRH,0.511 ± 0.76
21,GTDVQEWLAYCCAIIYAF,0.332 ± 0.72
22,SFCVFLMDMSRIGPETLSEW,4.95 ± 0.076
23,VSDYFG,0.229 ± 0.87
24,HYVGSLMVSW,0.188 ± 0.81
25,CRYYRCSQKLDKLVTFTKKS,0.722 ± 0.49

row,Substance,amyloid nucleation score
1,GCSVAASSESNNRSQQVGLT,1.02 ± 0.84
2,RFCGVMESERTVIRKCREVG,0.095 ± 0.42
3,SETYSSVAWRTMVVAAELVD,0.822 ± 0.95
4,AGSGRGRGGCTSNRSDYSSG,-0.849 ± 1
5,HIFVMIYVLMEDGSKKLTSM,0.99 ± 0.85
6,SPRSLMKGVITTHIIG,0.917 ± 0.4
7,WNYSHEV,inactive
8,LNQPWYIRIQANIDFNR,4.47 ± 0.079
9,LCGDHLFWLDVGDAVGVFLA,0.176 ± 0.4
10,IFNSATSTCNSRYIYIK,4.26 ± 0.074
11,IASSSTRFLYV,0.813 ± 0.51
12,HPLWGPYR,0.518 ± 0.59
13,TLGFKIVDGIRGNMLVGPGI,-0.081 ± 0.73
14,MCLSPVNNVLLYFRFNKRAE,3.38 ± 0.12
15,RDSNVGIFHNSR,-1.35 ± 0.87
16,GWHTQVMVVTSVSMLGVWT,0.487 ± 0.24
17,QLDINN,0.197 ± 0.52
18,PLDHLHLSKWCTSEKDLVV,0.766 ± 0.38
19,PCDSICALFALSKHQVGGGW,0.324 ± 0.55
20,VEGRVSEFGRLHMSCYTGLR,-0.076 ± 0.48
21,SIYSRGSVLANPCSFYAEVR,inactive
22,WGSSLRRTYMFYLDFDGWVN,-0.405 ± 1.7
23,TLSLNYRFNLKERFLVSGLI,-0.733 ± 0.38
24,TVAGVR,0.174 ± 0.4
25,TSAGKYHSSIILLYLWDYVT,0.845 ± 0.41

row,Substance,amyloid nucleation score
1,CNLIYCTFDYLNFWDYYTID,6.64 ± 0.054
2,LYNVSSLGSANKSFLGRSS,1.39 ± 0.76
3,GSGSYRGTRLECLCFW,0.025 ± 1.1
4,ATMVMELMVSELGLEEVFDV,-0.216 ± 0.49
5,VWLMFLSWLV,-0.639 ± 0.78
6,LCDFLNAYEINGKFSCGGTR,0.084 ± 0.38
7,DGNLKSR,0.644 ± 0.78
8,RTHEFQTLMEAFRSNTAVSA,-0.031 ± 0.22
9,IENPVLRCSLYYPSRPIRRL,-0.344 ± 0.58
10,CHGKESRTVREVHDLLVYVS,-0.408 ± 0.78
11,RDHMAYYMSVVGSSKNPLRR,inactive
12,DDLTVMVGPYMGGS,-0.82 ± 1.1
13,TVLWWSSGDSGSCWYYCKIE,-0.177 ± 0.31
14,SHATFRVWHTVVVAV,-0.031 ± 0.34
15,VVYHT,-0.368 ± 0.28
16,RLRSLDHWSWDAVMLMRAQL,0.432 ± 0.34
17,WVLYSIILCERCNHKGTSDG,0.057 ± 0.53
18,TKFKIAYTCYFNMFHRRLCI,-0.374 ± 0.38
19,VLCSMDSVGSSGASGIFTYM,-0.025 ± 0.4
20,VYYIVFPTTLSVDKFFPIWC,2.26 ± 0.18
21,VRRQRKVVLPTLMGNASGRP,-0.183 ± 0.43
22,VCTNRYGPCSPS,4.26 ± 0.09
23,CFGSSRVSCEYTDDRDDCGM,inactive
24,YLISYRLTPSYASVNDCFPD,0.203 ± 0.46
25,WCQKYNFRCSVLDLTFSLLW,6.71 ± 0.069

row,Substance,amyloid nucleation score
1,RGRVSNY,-0.455 ± 1.4
2,AVSNLATEGRVYLKVRLESW,-0.991 ± 2.4
3,RICPKNCMSISVI,0.305 ± 0.29
4,ITYTGASR,0.295 ± 0.57
5,NKLGLLRVFKVRFPPCCCCD,-0.266 ± 0.99
6,WFRVGVPHN,0.472 ± 1.2
7,NKVHSSFSLGGLPEARASDE,0.966 ± 0.66
8,VELLIEFLSRLGWIGCRHVL,0.08 ± 0.86
9,RVRTPHNWTWGITCTWVFKF,0.326 ± 0.51
10,ASFITGWMANTYN,0.385 ± 0.42
11,YCIASSVGWFVFVIWPLRKS,0.065 ± 0.56
12,RGDAIMAWGSVVRYIHYILY,1.51 ± 0.5
13,SKIESHFWLVFNIRGSYNKA,7.298 ± 0.046
14,PFCRSRHAGHSRSLQVEKFM,-0.004 ± 0.29
15,CLYICIMGRIDAISSHSQII,0.453 ± 0.43
16,NGCDIFSFGFYLLILFSLIQ,-0.196 ± 0.49
17,MLRSNVLYLIHRALCLWCVT,2.42 ± 0.17
18,FNKVSAMDEAREYGVEVVAV,5.46 ± 0.073
19,WNDRSGDVSLPCS,0.027 ± 0.61
20,PVLRAWYGRLFCRYSWLWQC,0.274 ± 0.46
21,WKMNGPFDFDPRRMISHDLK,-0.158 ± 0.42
22,SVSACPRVPMCIYGYLCWCH,-0.311 ± 0.3
23,ITMWMPRILRVTITYDTRG,0.111 ± 1.2
24,IYNWH,0.849 ± 0.66
25,DFCFPSNVRGLDCGGSKGYR,inactive

row,Substance,amyloid nucleation score
1,KLDCMVDDICGTSGTVFLCL,4.85 ± 0.061
2,EGTFRLID,0.047 ± 0.3
3,IWCSCAYRGVGMSTGFAIIY,1.13 ± 0.58
4,TLFLLVSNVIAEFLFWIVCP,0.212 ± 0.3
5,RTGVIWYY,-0.677 ± 1
6,QDITPYWIVIGYD,-0.367 ± 0.29
7,KHRLGQSMVSVRHYRFWGRI,-0.437 ± 0.57
8,GTSRPVDWGLRRLS,1.37 ± 0.62
9,CYVHEFMDEPSRSNGDGVWC,-0.512 ± 1.2
10,RLSGKFFICVGLKCVIWLRG,-1.09 ± 0.54
11,PILMFTVCMSDSQTVLNFCS,6.56 ± 0.047
12,DFENWPVRLWYFKTIFLRS,1.93 ± 0.51
13,LVNVCFRWNLKCYYQSSEYA,0.518 ± 0.32
14,WYASRTTSIEYTKVYKCGGP,0.599 ± 0.43
15,WCLSG,-0.498 ± 0.48
16,GCQLLYAKHIQSIMSQRPKN,0.374 ± 0.65
17,ITGLVRLFC,0.134 ± 1
18,SILFATAFMPVGLRLNDVLS,-0.003 ± 0.46
19,LFHQLRITSVLSYDDKCEAR,0.41 ± 0.2
20,LELTIRVRNSIVI,inactive
21,AGVAGL,-0.661 ± 0.4
22,IYVITVRPNVHNTLMHLIVT,0.374 ± 0.73
23,CWTSFYDC,0.448 ± 0.49
